Results from the supplement of paper PMC10126150.
± gives the standard deviation of the averaged measurements.

What follows are sequences tested on ATP (assay: switch fluorescence ratio, 500 uM ATP over buffer (Cy3 cluster intensity, sum of 5 cycles each) (fold (ratio)); higher = stronger signal-on switching upon ATP binding; sequences stand for … in TCGTCGGCAGCGTCAGATGTGTATAAGAGACAGTTTTTTTTTTTTTTTTTTTTTTTTT…TC). Conditions: aptamer strand: ATP DNA aptamer (quencher-CACCTGGGGGAGTATTGCGGAGGAAGG + anchor), 100 nM annealed; ATP concentration: 500 uM.
Method in brief: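 Exposure to 500 uM ATP lasted 15 min at 22 °C before imaging, and a selection-buffer image was taken beforehand, for Cy3-labelled switching-strand clusters on a modified Illumina MiSeq flow-cell annealed to 100 nM quencher-labelled ATP aptamer. Five buffer/ATP cycles were run with NaOH stripping and re-annealing between them. The fluorescence ratio per cluster is summed target-cycle over summed buffer-cycle Cy3 intensity, averaged per switch-domain sequence. Clusters outside 100-1000 RFU were excluded.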
TCGATAGGGA was tested, and the switch fluorescence ratio was 1.01 ± 0.03.
TCGATGCGTG showed a switch fluorescence ratio of 1.01 ± 0.011.
Work on TCGATGTTTC yielded a switch fluorescence ratio of 1.01 ± 0.026.
Work on TCGATTGGTG yielded a switch fluorescence ratio of 1.01 ± 0.013.
For TCGATTTGGT, the switch fluorescence ratio was 0.9749 ± 0.008.
Sequence TCGATTTTTT has a switch fluorescence ratio of 1.01 ± 0.028.
TCGCAGCTTG was tested, and the switch fluorescence ratio was 1.05 ± 0.029.
TCGCATAGGT showed a switch fluorescence ratio of 1.1 ± 0.12.
Work on TCGCCGCTTT yielded a switch fluorescence ratio of 1.76 ± 0.11.
TCGCCGTATG showed a switch fluorescence ratio of 0.999 ± 0.018.
TCGCGCAGAA showed a switch fluorescence ratio of 1.061 ± 0.0063.
In the case of TCGCGCGGTA, the switch fluorescence ratio is reported as 1.007 ± 0.01.
Work on TCGCGCTATT yielded a switch fluorescence ratio of 1.34 ± 0.39.
With TCGCGGGCTA the switch fluorescence ratio was 1.04 ± 0.046.
In the case of TCGCGGTCGG, the switch fluorescence ratio is reported as 0.997 ± 0.015.
TCGCGGTGGC showed a switch fluorescence ratio of 1 ± 0.029.
In the case of TCGCGTTTCT, the switch fluorescence ratio is reported as 1.03 ± 0.088.
In the case of TCGCGTTTTT, the switch fluorescence ratio is reported as 0.994 ± 0.031.
TCGCTAACGG gave a switch fluorescence ratio of 1.07 ± 0.018.
TCGCTCCTGG showed a switch fluorescence ratio of 1 ± 0.046.
With TCGCTCTGTT the switch fluorescence ratio was 0.991 ± 0.011.
With TCGCTTGCGG the switch fluorescence ratio was 1 ± 0.032.
For TCGCTTGGGG, the switch fluorescence ratio was 1 ± 0.013.
In the case of TCGCTTTTTG, the switch fluorescence ratio is reported as 1.01 ± 0.027.
In the case of TCGGAACTCG, the switch fluorescence ratio is reported as 0.9824 ± 0.0063.
TCGGAAGTAT gave a switch fluorescence ratio of 0.9629 ± 0.0083.
Work on TCGGACGGAA yielded a switch fluorescence ratio of 2.17 ± 0.21.
TCGGACGGGG showed a switch fluorescence ratio of 1.03 ± 0.015.
Sequence TCGGAGCAGG has a switch fluorescence ratio of 1.4 ± 0.058.
TCGGAGGGAA was tested, and the switch fluorescence ratio was 1.03 ± 0.027.
TCGGAGGGGA was tested, and the switch fluorescence ratio was 1 ± 0.02.
Sequence TCGGAGGTCC has a switch fluorescence ratio of 0.958 ± 0.029.
TCGGAGTCTC gave a switch fluorescence ratio of 1.127 ± 0.0029.
Sequence TCGGATAAGT has a switch fluorescence ratio of 1.01 ± 0.034.
With TCGGATTAAT the switch fluorescence ratio was 1.05 ± 0.043.
In the case of TCGGATTGGC, the switch fluorescence ratio is reported as 0.985 ± 0.034.
Work on TCGGATTTGT yielded a switch fluorescence ratio of 1.01 ± 0.041.
TCGGCCAGGT gave a switch fluorescence ratio of 1.5 ± 0.046.
TCGGCGAAGG gave a switch fluorescence ratio of 1.01 ± 0.082.
TCGGCGGTCT showed a switch fluorescence ratio of 0.999 ± 0.025.
For TCGGCGGTGG, the switch fluorescence ratio was 0.963 ± 0.05.
TCGGGAACGC showed a switch fluorescence ratio of 1.04 ± 0.032.
TCGGGAGCAG showed a switch fluorescence ratio of 1.03 ± 0.054.
TCGGGAGTCA gave a switch fluorescence ratio of 1.011 ± 0.0091.
TCGGGATCCT showed a switch fluorescence ratio of 1.35 ± 0.51.
TCGGGCCCGG was tested, and the switch fluorescence ratio was 1 ± 0.078.
In the case of TCGGGGAGAA, the switch fluorescence ratio is reported as 0.992 ± 0.073.
TCGGGGATAT gave a switch fluorescence ratio of 3.05 ± 2.9.
With TCGGGGATG the switch fluorescence ratio was 1.52 ± 0.83.
In the case of TCGGGGCCGA, the switch fluorescence ratio is reported as 0.969 ± 0.01.
Work on TCGGGGCCGG yielded a switch fluorescence ratio of 0.964 ± 0.037.
For TCGGGGGAAA, the switch fluorescence ratio was 0.994 ± 0.036.
Sequence TCGGGGGATA has a switch fluorescence ratio of 0.98 ± 0.039.
In the case of TCGGGGGCGG, the switch fluorescence ratio is reported as 1.02 ± 0.078.
In the case of TCGGGGGGAG, the switch fluorescence ratio is reported as 1.01 ± 0.018.
In the case of TCGGGGGTAT, the switch fluorescence ratio is reported as 1.2 ± 0.36.
TCGGGGGTCA was tested, and the switch fluorescence ratio was 0.9781 ± 0.0051.
For TCGGGGGTTT, the switch fluorescence ratio was 1 ± 0.038.
TCGGGTATCG gave a switch fluorescence ratio of 0.976 ± 0.037.
For TCGGGTATTC, the switch fluorescence ratio was 1.06 ± 0.14.
Sequence TCGGGTCCAT has a switch fluorescence ratio of 1 ± 0.026.
For TCGGGTGGGG, the switch fluorescence ratio was 1.01 ± 0.014.
For TCGGGTTGGG, the switch fluorescence ratio was 0.975 ± 0.023.
TCGGGTTTTT showed a switch fluorescence ratio of 1 ± 0.03.
In the case of TCGGTAAATT, the switch fluorescence ratio is reported as 1.05 ± 0.014.
TCGGTACATA showed a switch fluorescence ratio of 1.037 ± 0.0066.
For TCGGTAGTG, the switch fluorescence ratio was 0.985 ± 0.028.
For TCGGTATGAC, the switch fluorescence ratio was 1.07 ± 0.029.
TCGGTATGTG showed a switch fluorescence ratio of 1.03 ± 0.045.
Work on TCGGTCAAAT yielded a switch fluorescence ratio of 0.977 ± 0.011.
TCGGTCACCA was tested, and the switch fluorescence ratio was 1.05 ± 0.028.
With TCGGTCCGTT the switch fluorescence ratio was 0.9492 ± 0.0027.
For TCGGTCCTTT, the switch fluorescence ratio was 0.99 ± 0.029.
With TCGGTCTAAC the switch fluorescence ratio was 1 ± 0.015.
With TCGGTGACGG the switch fluorescence ratio was 1.01 ± 0.017.
TCGGTGGGGC showed a switch fluorescence ratio of 1.01 ± 0.019.
In the case of TCGGTGGTGG, the switch fluorescence ratio is reported as 0.997 ± 0.019.
In the case of TCGGTGTCGC, the switch fluorescence ratio is reported as 0.9621 ± 0.0031.
TCGGTTAGTA gave a switch fluorescence ratio of 0.9883 ± 0.0021.
Sequence TCGGTTCAGC has a switch fluorescence ratio of 1.011 ± 0.0024.
TCGGTTCCCG showed a switch fluorescence ratio of 0.981 ± 0.018.
Sequence TCGGTTTGTT has a switch fluorescence ratio of 1 ± 0.0029.
In the case of TCGTAAAATT, the switch fluorescence ratio is reported as 0.986 ± 0.026.
TCGTAACACT was tested, and the switch fluorescence ratio was 1.16 ± 0.0057.
In the case of TCGTAAGTAA, the switch fluorescence ratio is reported as 1.04 ± 0.0094.
For TCGTAATAGT, the switch fluorescence ratio was 1.62 ± 0.068.
Sequence TCGTAATGGT has a switch fluorescence ratio of 1.05 ± 0.083.
TCGTACGTGG showed a switch fluorescence ratio of 0.998 ± 0.016.
In the case of TCGTAGAATA, the switch fluorescence ratio is reported as 1.01 ± 0.032.
Work on TCGTAGGGGT yielded a switch fluorescence ratio of 0.995 ± 0.018.
For TCGTATTTTC, the switch fluorescence ratio was 0.994 ± 0.058.
TCGTCGATTC was tested, and the switch fluorescence ratio was 1.12 ± 0.02.
TCGTCGCTTT showed a switch fluorescence ratio of 1.04 ± 0.026.
TCGTCGTGGG showed a switch fluorescence ratio of 1.02 ± 0.025.
TCGTCTGCGG gave a switch fluorescence ratio of 1.04 ± 0.03.
TCGTGAGGTT was tested, and the switch fluorescence ratio was 1.01 ± 0.012.
TCGTGAGTAG was tested, and the switch fluorescence ratio was 0.973 ± 0.017.
Work on TCGTGAGTTT yielded a switch fluorescence ratio of 0.996 ± 0.035.
In the case of TCGTGGCGGA, the switch fluorescence ratio is reported as 0.979 ± 0.011.
With TCGTGGTGGT the switch fluorescence ratio was 0.974 ± 0.018.
